Reference: paper PMC10140304, “Flagellar brake protein YcgR interacts with motor proteins MotA and FliG to regulate the flagellar rotation speed and direction” (Frontiers in Microbiology, 2023)

T1: mYPet-YcgR-mCyPet (YcgR-biosensor), wild-type E. coli YcgR (E. coli MG1655), P76010
T1 chain: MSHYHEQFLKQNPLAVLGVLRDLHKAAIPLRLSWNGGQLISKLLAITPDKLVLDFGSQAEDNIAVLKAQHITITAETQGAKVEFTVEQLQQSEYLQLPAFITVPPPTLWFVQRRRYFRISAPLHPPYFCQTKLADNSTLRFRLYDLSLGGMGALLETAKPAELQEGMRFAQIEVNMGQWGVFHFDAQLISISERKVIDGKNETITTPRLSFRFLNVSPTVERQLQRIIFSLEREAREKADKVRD

T2: FliG (E. coli MG1655, UniProt P0ABZ1 1-331)
T2 construct: Flagellar motor switch (rotor) protein FliG, E. coli MG1655; also called individual FliG; rotor protein FliG; source: E. coli BL21 (DE3), purified following Hou et al., 2020
T2 sequence (looked up): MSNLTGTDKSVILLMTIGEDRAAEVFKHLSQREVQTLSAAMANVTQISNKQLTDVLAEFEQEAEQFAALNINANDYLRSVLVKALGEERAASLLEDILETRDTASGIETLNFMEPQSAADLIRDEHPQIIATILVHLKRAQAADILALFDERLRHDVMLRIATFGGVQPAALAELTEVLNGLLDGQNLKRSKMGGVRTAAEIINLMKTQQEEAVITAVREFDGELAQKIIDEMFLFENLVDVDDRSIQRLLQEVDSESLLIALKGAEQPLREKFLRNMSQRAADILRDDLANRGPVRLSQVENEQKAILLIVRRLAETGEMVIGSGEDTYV

B1: mYPet-YcgR(Q38A/D54A/N62A)-mCyPet mutant biosensor (natural protein, E. coli MG1655, UniProt P76010 1-244, looked up)
chain: MSHYHEQFLKQNPLAVLGVLRDLHKAAIPLRLSWNGGALISKLLAITPDKLVLAFGSQAEDAIAVLKAQHITITAETQGAKVEFTVEQLQQSEYLQLPAFITVPPPTLWFVQRRRYFRISAPLHPPYFCQTKLADNSTLRFRLYDLSLGGMGALLETAKPAELQEGMRFAQIEVNMGQWGVFHFDAQLISISERKVIDGKNETITTPRLSFRFLNVSPTVERQLQRIIFSLEREAREKADKVRD
notes: Flagellar brake protein YcgR, E. coli MG1655, triple mutant Q38A/D54A/N62A, between YPet (A206K) and CyPet (A206K); Printed both as QDN/AAA and QND/AAA; also called QDN/AAA; QND/AAA biosensor; source: E. coli BL21 (DE3), purified following Hou et al., 2020; not shown: mYPet (YPet A206K), N-terminal, kept; mCyPet (CyPet A206K), C-terminal, kept
B2: mYPet-YcgR(D54A)-mCyPet mutant biosensor (natural protein, E. coli MG1655, UniProt P76010 1-244, looked up)
chain: MSHYHEQFLKQNPLAVLGVLRDLHKAAIPLRLSWNGGQLISKLLAITPDKLVLAFGSQAEDNIAVLKAQHITITAETQGAKVEFTVEQLQQSEYLQLPAFITVPPPTLWFVQRRRYFRISAPLHPPYFCQTKLADNSTLRFRLYDLSLGGMGALLETAKPAELQEGMRFAQIEVNMGQWGVFHFDAQLISISERKVIDGKNETITTPRLSFRFLNVSPTVERQLQRIIFSLEREAREKADKVRD
notes: Flagellar brake protein YcgR, E. coli MG1655, mutant D54A, between YPet (A206K) and CyPet (A206K); also called YcgR biosensor mutant D54A; source: E. coli BL21 (DE3), purified following Hou et al., 2020; not shown: mYPet (YPet A206K), N-terminal, kept; mCyPet (CyPet A206K), C-terminal, kept

How the values were obtained:
[1] = target: B1; assay: FRET or BRET; in vitro, intramolecular FRET of 1.5 uM YcgR biosensor oversaturated with excess c-di-GMP (2 mM), titrated with gradient concentrations of motor protein; 25 C, SEC buffer; FRET/CFP ratio fitted to a logistic equation; settings: both partners purified
[2] = target: T1, mYPet-YcgR-mCyPet (YcgR-biosensor), …; assay: as above; settings: remark: other sources report otherwise
[3] = target: B1; assay: FRET or BRET; in vitro, intramolecular FRET of 1.5 uM YcgR biosensor (mYPet-YcgR-mCyPet) titrated with 0-500 uM motor protein, without c-di-GMP; 25 C, SEC buffer (20 mM HEPES pH 7.5, 150 mM NaCl, 10% glycerol); FRET/CFP ratio fitted to a logistic equation; settings: both partners purified
[4] = target: B2; assay: as above; settings: both partners purified
[5] = target: T1, mYPet-YcgR-mCyPet (YcgR-biosensor), …; assay: as above; settings: remark: other sources report otherwise
FliG [6] = target: T2, FliG; assay: FRET or BRET; in vitro, intramolecular FRET of 1.5 uM YcgR biosensor oversaturated with excess c-di-GMP (2 mM), titrated with gradient concentrations of motor protein; 25 C, SEC buffer; FRET/CFP ratio fitted to a logistic equation; settings: both partners purified
FliG [7] = target: T2, FliG; assay: FRET or BRET; in vitro, intramolecular FRET of 1.5 uM YcgR biosensor (mYPet-YcgR-mCyPet) titrated with 0-500 uM motor protein, without c-di-GMP; 25 C, SEC buffer (20 mM HEPES pH 7.5, 150 mM NaCl, 10% glycerol); FRET/CFP ratio fitted to a logistic equation; settings: both partners purified

Kd [1] | Kd [2] | Kd [3] | Kd [4] | Kd [5] | Kd (FliG [6]) | Kd (FliG [7]) | Binder
46.1 ± 2.2 µM | 35.9 µM | 151 ± 10.2 µM | 114 ± 11.3 µM | 123 µM |  |  | MotAc, cytoplasmic domain of MotA (residues 70-170 of MotA) (domain or fragment, E. coli MG1655, UniProt P09348 70-170, looked up, Flagellar stator protein MotA, E. coli MG1655, cytoplasmic domain, residues 70-170; source: E. coli BL21 (DE3), purified following Hou et al., 2020) YTKAMYMDLLALLYRLMAKSRQMGMFSLERDIENPRESEIFASYPRILADSVMLDFIVDYLRLIISGHMNTFEIEALMDEEIETHESEAEVPANSLALVGD
 |  |  |  |  | 235 ± 35.4 µM | 139 ± 15.6 µM | B1
 |  |  |  |  | 213 µM | 141 ± 9.8 µM | B2
 |  |  |  |  | 107 µM | 143 µM | mYPet-YcgR-mCyPet (YcgR-biosensor), wild-type E. coli YcgR (natural protein, E. coli MG1655, UniProt P76010 1-244, looked up, Flagellar brake protein YcgR, E. coli MG1655, cloned between YPet (A206K) and CyPet (A206K) in an engineered pET15b; YFP and CFP report FRET within one chain; also called YcgR-FRET; FRET-based YcgR biosensor; source: E. coli BL21 (DE3), purified following Hou et al., 2020; not shown: mYPet (YPet A206K), N-terminal, kept; mCyPet (CyPet A206K), C-terminal, kept) MSHYHEQFLKQNPLAVLGVLRDLHKAAIPLRLSWNGGQLISKLLAITPDKLVLDFGSQAEDNIAVLKAQHITITAETQGAKVEFTVEQLQQSEYLQLPAFITVPPPTLWFVQRRRYFRISAPLHPPYFCQTKLADNSTLRFRLYDLSLGGMGALLETAKPAELQEGMRFAQIEVNMGQWGVFHFDAQLISISERKVIDGKNETITTPRLSFRFLNVSPTVERQLQRIIFSLEREAREKADKVRD
